Experimental data as given in patent US20240092841A1.

Tests used:
[1] = molecular target: Spectrin beta chain, non-erythrocytic 1 (human) (UniProt Q01082); assay: co-IP with agarose-bound AvFc from A549 whole-cell lysate, mass spectrometry
Serpin H1 (human) = Serpin H1 (human) (UniProt P50454); assay: as above
[2] = molecular target: Prolow-density lipoprotein receptor-related protein 1 (human) (UniProt Q07954); assay: as above
CD109 antigen (human) = CD109 antigen (human) (UniProt Q6YHK3); assay: as above
[3] = molecular target: Laminin subunit alpha-5 (human) (UniProt O15230); assay: as above
[4] = molecular target: Tropomyosin alpha-3 chain (human) (UniProt P06753); assay: as above
[5] = molecular target: Transferrin receptor protein 1 (human) (UniProt P02786); assay: as above
[6] = molecular target: Scavenger receptor class B member 1 (human) (UniProt Q8WTV0); assay: as above
[7] = molecular target: Adhesion G protein-coupled receptor L2 (human) (UniProt O95490); assay: as above
[8] = molecular target: Disintegrin and metalloproteinase domain-containing protein 17 (human) (UniProt P78536); assay: as above
[9] = molecular target: Laminin subunit beta-2 (human) (UniProt P55268); assay: as above
UniProt P55268, sequence (P55268 33-1798 limits assumed): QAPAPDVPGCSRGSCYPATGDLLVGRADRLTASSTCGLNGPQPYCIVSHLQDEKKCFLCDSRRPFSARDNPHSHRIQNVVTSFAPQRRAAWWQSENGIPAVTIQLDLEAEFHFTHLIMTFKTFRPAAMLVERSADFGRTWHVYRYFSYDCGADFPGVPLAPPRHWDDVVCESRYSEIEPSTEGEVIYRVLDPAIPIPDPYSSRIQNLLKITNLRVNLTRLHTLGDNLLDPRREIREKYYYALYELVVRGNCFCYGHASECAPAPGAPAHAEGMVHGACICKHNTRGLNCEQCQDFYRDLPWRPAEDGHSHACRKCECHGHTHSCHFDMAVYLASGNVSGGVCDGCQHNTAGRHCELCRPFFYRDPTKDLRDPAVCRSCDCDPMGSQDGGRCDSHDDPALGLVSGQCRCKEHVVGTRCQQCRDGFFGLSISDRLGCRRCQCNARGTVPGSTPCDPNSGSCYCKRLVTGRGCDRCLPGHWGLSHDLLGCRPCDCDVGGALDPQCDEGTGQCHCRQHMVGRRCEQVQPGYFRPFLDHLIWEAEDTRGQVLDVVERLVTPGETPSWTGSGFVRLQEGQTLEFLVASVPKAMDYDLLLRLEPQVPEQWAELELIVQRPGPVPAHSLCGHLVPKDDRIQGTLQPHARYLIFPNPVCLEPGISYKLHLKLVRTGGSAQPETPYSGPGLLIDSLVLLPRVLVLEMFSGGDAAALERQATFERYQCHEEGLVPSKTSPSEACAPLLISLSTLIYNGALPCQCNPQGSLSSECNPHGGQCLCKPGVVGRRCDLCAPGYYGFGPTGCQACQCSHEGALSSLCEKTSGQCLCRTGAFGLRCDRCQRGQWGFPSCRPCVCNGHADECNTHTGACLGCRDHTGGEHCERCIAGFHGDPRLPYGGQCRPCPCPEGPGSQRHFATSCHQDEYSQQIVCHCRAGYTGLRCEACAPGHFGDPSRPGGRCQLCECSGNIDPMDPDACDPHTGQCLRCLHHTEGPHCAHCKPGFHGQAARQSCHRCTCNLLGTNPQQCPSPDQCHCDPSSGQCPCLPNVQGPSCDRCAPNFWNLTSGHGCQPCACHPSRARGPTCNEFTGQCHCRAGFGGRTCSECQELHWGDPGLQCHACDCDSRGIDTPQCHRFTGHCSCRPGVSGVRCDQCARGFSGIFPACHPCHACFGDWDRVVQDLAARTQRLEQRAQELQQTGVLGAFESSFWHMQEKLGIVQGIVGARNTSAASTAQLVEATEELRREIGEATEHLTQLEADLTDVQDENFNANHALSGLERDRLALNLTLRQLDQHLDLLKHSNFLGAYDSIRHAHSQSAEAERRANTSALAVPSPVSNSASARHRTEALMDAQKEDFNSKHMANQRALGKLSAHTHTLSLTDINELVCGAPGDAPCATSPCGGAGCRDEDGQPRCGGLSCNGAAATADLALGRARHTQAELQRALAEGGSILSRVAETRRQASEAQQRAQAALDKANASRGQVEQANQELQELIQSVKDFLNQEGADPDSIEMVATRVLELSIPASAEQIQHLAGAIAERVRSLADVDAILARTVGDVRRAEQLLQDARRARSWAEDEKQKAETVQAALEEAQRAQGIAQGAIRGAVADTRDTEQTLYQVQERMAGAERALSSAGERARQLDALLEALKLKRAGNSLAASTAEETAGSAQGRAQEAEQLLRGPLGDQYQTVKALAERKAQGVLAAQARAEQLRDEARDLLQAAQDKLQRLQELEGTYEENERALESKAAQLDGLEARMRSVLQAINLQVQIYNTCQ

[10] = molecular target: Cell cycle control protein 50A (human) (UniProt Q9NV96); assay: as above
UniProt Q9NV96, sequence (Q9NV96 2-361 limits assumed): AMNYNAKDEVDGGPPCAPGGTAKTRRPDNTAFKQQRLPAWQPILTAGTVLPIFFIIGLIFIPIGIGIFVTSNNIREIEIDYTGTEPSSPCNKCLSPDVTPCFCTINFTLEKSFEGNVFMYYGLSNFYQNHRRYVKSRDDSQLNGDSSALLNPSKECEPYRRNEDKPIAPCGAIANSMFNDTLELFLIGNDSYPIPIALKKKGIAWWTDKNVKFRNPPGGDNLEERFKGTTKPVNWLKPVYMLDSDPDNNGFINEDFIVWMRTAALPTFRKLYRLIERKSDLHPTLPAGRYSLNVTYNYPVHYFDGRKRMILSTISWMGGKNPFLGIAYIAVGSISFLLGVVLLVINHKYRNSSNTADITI

[11] = molecular target: Transmembrane protein 131 (human) (UniProt Q92545); assay: as above
[12] = molecular target: Magnesium transporter protein 1 (human) (UniProt Q9H0U3); assay: as above
UniProt Q9H0U3, sequence (Q9H0U3 30-335 limits assumed): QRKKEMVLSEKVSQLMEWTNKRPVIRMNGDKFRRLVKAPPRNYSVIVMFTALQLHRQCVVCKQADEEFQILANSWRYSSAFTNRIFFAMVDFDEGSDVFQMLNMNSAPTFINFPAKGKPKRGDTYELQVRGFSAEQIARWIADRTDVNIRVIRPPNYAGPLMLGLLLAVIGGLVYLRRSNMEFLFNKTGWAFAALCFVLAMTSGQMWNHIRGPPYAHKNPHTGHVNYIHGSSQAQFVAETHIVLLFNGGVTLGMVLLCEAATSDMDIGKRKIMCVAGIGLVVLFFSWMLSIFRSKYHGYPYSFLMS

Mucin-5B (human) = Mucin-5B (human) (UniProt Q9HC84); assay: as above
[13] = molecular target: Laminin subunit alpha-1 (human) (UniProt P25391); assay: co-IP with agarose-bound AvFc from H460 whole-cell lysate, mass spectrometry
[14] = molecular target: Neural cell adhesion molecule L1 (human) (UniProt P32004); assay: as above
[15] = molecular target: Laminin subunit gamma-1 (human) (UniProt P11047); assay: as above
[16] = molecular target: Synaptonemal complex protein SC65 (human) (UniProt Q92791); assay: as above
[17] = molecular target: Transmembrane protein 106B (human) (UniProt Q9NUM4); assay: as above
[18] = molecular target: Galectin-3-binding protein (human) (UniProt Q08380); assay: as above
Nidogen-2 (human) = Nidogen-2 (human) (UniProt Q14112); assay: as above
[19] = molecular target: Cation-dependent mannose-6-phosphate receptor (human) (UniProt P20645); assay: as above
[20] = molecular target: ATP-binding cassette sub-family A member 2 (human) (UniProt Q9BZC7); assay: as above
[21] = molecular target: Scavenger receptor class A member 5 (human) (UniProt Q6ZMJ2); assay: as above
Integrin alpha-V (human) = Integrin alpha-V (human) (UniProt P06756); assay: as above
[22] = molecular target: Contactin-associated protein 1 (human) (UniProt P78357); assay: as above
[23] = molecular target: Endothelial protein C receptor (human) (UniProt Q9UNN8); assay: as above
Integrin beta-5 (human) = Integrin beta-5 (human) (UniProt P18084); assay: as above
[24] = molecular target: Laminin subunit beta-2 (human) (UniProt P55268); assay: as above
[25] = molecular target: Cation-independent mannose-6-phosphate receptor (human) (UniProt P11717); assay: as above
Integrin alpha-3 (human) = Integrin alpha-3 (human) (UniProt P26006); assay: as above
Integrin alpha-1 (human) = Integrin alpha-1 (human) (UniProt P56199); assay: as above
[26] = molecular target: Niemann-Pick C1 protein (human) (UniProt O15118); assay: as above
[27] = molecular target: Cell cycle control protein 50A (human) (UniProt Q9NV96); assay: as above
[28] = molecular target: Sortilin-related receptor (human) (UniProt Q92673); assay: as above
UniProt Q92673, sequence (Q92673 82-2214 limits assumed): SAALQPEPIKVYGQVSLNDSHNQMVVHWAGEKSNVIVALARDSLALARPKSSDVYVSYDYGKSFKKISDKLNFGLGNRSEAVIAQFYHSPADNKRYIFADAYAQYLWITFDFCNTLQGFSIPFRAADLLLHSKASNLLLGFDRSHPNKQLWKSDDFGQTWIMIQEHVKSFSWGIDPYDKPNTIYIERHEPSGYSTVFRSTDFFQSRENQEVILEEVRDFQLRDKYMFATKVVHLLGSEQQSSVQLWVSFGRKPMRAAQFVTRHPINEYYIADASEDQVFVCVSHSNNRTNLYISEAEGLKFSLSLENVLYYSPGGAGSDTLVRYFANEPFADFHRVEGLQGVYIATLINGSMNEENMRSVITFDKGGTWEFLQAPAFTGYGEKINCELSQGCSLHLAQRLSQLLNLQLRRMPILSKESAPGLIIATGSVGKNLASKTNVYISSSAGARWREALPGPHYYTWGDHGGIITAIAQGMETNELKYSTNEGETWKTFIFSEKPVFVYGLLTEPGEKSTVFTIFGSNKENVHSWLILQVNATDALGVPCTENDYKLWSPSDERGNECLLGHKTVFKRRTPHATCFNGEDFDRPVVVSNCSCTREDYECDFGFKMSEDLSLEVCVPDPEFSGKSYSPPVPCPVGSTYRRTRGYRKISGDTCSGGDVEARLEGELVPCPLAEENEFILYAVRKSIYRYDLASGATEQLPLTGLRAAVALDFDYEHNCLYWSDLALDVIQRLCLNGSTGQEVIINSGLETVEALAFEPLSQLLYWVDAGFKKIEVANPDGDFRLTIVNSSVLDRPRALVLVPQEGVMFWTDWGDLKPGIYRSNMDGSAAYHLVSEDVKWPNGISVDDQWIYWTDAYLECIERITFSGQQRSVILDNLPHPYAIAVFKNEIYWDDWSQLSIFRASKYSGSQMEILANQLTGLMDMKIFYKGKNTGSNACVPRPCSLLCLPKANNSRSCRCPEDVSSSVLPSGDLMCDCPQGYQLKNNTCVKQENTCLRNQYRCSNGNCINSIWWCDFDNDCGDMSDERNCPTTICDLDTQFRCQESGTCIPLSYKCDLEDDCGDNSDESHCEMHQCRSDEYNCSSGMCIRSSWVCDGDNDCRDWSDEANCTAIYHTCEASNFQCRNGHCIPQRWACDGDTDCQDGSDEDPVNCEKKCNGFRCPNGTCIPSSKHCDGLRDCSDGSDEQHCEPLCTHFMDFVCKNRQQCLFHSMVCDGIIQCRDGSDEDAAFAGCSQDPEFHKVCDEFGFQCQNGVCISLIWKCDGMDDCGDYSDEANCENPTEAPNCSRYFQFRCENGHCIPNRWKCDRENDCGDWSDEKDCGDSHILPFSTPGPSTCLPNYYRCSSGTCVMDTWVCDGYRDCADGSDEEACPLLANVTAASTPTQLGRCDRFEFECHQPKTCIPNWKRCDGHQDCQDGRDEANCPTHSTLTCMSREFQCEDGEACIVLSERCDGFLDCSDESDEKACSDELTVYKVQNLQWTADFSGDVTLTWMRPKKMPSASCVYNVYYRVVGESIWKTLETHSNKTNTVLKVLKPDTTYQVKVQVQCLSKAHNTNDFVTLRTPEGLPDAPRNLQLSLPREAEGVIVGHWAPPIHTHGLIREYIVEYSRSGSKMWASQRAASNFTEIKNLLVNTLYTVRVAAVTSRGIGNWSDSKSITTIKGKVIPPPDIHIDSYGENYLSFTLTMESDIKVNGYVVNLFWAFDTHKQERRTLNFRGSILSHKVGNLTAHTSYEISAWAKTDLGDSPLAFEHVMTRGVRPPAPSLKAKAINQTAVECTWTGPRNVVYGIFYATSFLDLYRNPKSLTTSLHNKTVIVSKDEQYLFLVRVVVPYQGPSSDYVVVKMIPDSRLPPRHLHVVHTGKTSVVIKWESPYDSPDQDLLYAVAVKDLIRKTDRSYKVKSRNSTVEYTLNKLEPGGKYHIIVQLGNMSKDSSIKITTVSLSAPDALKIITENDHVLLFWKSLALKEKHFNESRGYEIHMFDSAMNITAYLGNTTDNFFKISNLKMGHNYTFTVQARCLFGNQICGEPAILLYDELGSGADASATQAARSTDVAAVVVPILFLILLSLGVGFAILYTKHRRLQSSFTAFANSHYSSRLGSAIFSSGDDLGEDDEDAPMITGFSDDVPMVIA

[29] = molecular target: Magnesium transporter protein 1 (human) (UniProt Q9H0U3); assay: as above
[30] = molecular target: 4F2 cell-surface antigen heavy chain (human) (UniProt P08195); assay: as above

UniProt P50454, sequence (P50454 19-418 limits assumed): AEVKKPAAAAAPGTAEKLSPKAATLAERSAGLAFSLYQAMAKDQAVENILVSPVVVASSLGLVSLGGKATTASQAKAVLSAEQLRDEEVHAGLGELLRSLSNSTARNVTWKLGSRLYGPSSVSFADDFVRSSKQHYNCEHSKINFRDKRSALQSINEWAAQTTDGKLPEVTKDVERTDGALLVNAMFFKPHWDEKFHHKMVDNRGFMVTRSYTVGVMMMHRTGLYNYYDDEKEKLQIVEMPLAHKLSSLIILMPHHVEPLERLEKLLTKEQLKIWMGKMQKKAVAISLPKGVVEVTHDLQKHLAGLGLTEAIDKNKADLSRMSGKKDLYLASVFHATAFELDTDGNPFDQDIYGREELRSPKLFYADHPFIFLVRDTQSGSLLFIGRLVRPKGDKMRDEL

## Avaren-Fc (AvFc) (Fc fusion)
[1]
  Percentage of Total Spectra (%): 0.11%
Serpin H1 (human)
  Percentage of Total Spectra (%): 0.063%
[2]
  Percentage of Total Spectra (%): 0.056%
CD109 antigen (human)
  Percentage of Total Spectra (%): 0.13%
[3]
  Percentage of Total Spectra (%): 0.34%
[4]
  Percentage of Total Spectra (%): 0.07%
[5]
  Percentage of Total Spectra (%): 0.16%
[6]
  Percentage of Total Spectra (%): 0.056%
[7]
  Percentage of Total Spectra (%): 0.091%
[8]
  Percentage of Total Spectra (%): 0.056%
[9]
  Percentage of Total Spectra (%): 0.056%
[10]
  Percentage of Total Spectra (%): 0.021%
[11]
  Percentage of Total Spectra (%): 0.056%
[12]
  Percentage of Total Spectra (%): 0.021%
Mucin-5B (human)
  Percentage of Total Spectra (%): 0.14%
[13]
  Percentage of Total Spectra (%): 0.35%
[14]
  Percentage of Total Spectra (%): 0.099%
[15]
  Percentage of Total Spectra (%): 0.83%
[16]
  Percentage of Total Spectra (%): 0.066%
[17]
  Percentage of Total Spectra (%): 0.11%
[18]
  Percentage of Total Spectra (%): 0.17%
Nidogen-2 (human)
  Percentage of Total Spectra (%): 0.066%
[19]
  Percentage of Total Spectra (%): 0.025%
[20]
  Percentage of Total Spectra (%): 0.21%
[21]
  Percentage of Total Spectra (%): 0.099%
Integrin alpha-V (human)
  Percentage of Total Spectra (%): 0.13%
[22]
  Percentage of Total Spectra (%): 0.13%
[23]
  Percentage of Total Spectra (%): 0.033%
Integrin beta-5 (human)
  Percentage of Total Spectra (%): 0.12%
[24]
  Percentage of Total Spectra (%): 0.16%
[25]
  Percentage of Total Spectra (%): 0.44%
Integrin alpha-3 (human)
  Percentage of Total Spectra (%): 0.025%
Integrin alpha-1 (human)
  Percentage of Total Spectra (%): 0.13%
[26]
  Percentage of Total Spectra (%): 0.066%
[27]
  Percentage of Total Spectra (%): 0.033%
[28]
  Percentage of Total Spectra (%): 0.058%
[29]
  Percentage of Total Spectra (%): 0.017%
[30]
  Percentage of Total Spectra (%): 0.091%
